Measured values taken from the supplement of paper PMC5998384.

How the values were obtained:
HeLa Kyoto [1] = assay: solubility in G1/S (NP-40 vs SDS abundance) (log2 ratio); higher = more soluble; conditions: cell cycle stage: G1/S
HeLa Kyoto [2] = assay: solubility change mitosis vs G1/S (difference of NP-40 vs SDS log2 ratios) (log2 ratio difference); higher = more soluble in mitosis
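Throughout, for solubility change mitosis vs G1/S (difference of NP-40 vs SDS log2 ratios): synchronized HeLa Kyoto cells (double thymidine block for G1/S, nocodazole release for mitosis), protein amounts in NP-40 versus SDS lysates quantified by mass spectrometry, three biological replicates.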
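Throughout, for solubility in G1/S (NP-40 vs SDS abundance): HeLa Kyoto cells arrested at G1/S by double thymidine block, proteins quantified by TMT10plex mass spectrometry in mild NP-40 versus SDS extracts, three biological replicates.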

Sequence | solubility in G1/S (log2) (HeLa Kyoto [1]) | solubility change mitosis (log2) (HeLa Kyoto [2])
MSSGLWSQEKVTSPYWEERIFYLLLQECSVTDKQTQKLLKVPKGSIGQYIQDRSVGHSRIPSAKGKKNQIGLKILEQPHAVLFVDEKDVVEINEKFTELLLAITNCEERFSLFKNRNRLSKGLQIDVGCPVKVQLRSGEEKFPGVVRFRGPLLAERTVSGIFFGVELLEEGRGQGFTDGVYQGKQLFQCDEDCGVFVALDKLELIEDDDTALESDYAGPGDTMQVELPPLEINSRVSLKVGETIESGTVIFCDVLPGKESLGYFVGVDMDNPIGNWDGRFDGVQLCSFACVESTILLHINDIIPALSESVTQERRPPKLAFMSRGVGDKGSSSHNKPKATGSTSDPGNRNRSELFYTLNGSSVDSQPQSKSKNTWYIDEVAEDPAKSLTEISTDFDRSSPPLQPPPVNSLTTENRFHSLPFSLTKMPNTNGSIGHSPLSLSAQSVMEELNTAPVQESPPLAMPPGNSHGLEVGSLAEVKENPPFYGVIRWIGQPPGLNEVLAGLELEDECAGCTDGTFRGTRYFTCALKKALFVKLKSCRPDSRFASLQPVSNQIERCNSLAFGGYLSEVVEENTPPKMEKEGLEIMIGKKKGIQGHYNSCYLDSTLFCLFAFSSVLDTVLLRPKEKNDVEYYSETQELLRTEIVNPLRIYGYVCATKIMKLRKILEKVEAASGFTSEEKDPEEFLNILFHHILRVEPLLKIRSAGQKVQDCYFYQIFMEKNEKVGVPTIQQLLEWSFINSNLKFAEAPSCLIIQMPRFGKDFKLFKKIFPSLELNITDLLEDTPRQCRICGGLAMYECRECYDDPDISAGKIKQFCKTCNTQVHLHPKRLNHKYNPVSLPKDLPDWDWRHGCIPCQNMELFAVLCIETSHYVAFVKYGKDDSAWLFFDSMADRDGGQNGFNIPQVTPCPEVGEYLKMSLEDLHSLDSRRIQGCARRLLCDAYMCMYQSPTMSLYK | 0.0441 | -0.178
MSSIKHLVYAVIRFLREQSQMDTYTSDEQESLEVAIQCLETVFKISPEDTHLAVSQPLTEMFTSSFCKNDVLPLSNSVPEDVGKADQLKDEGNNHMKEENYAAAVDCYTQAIELDPNNAVYYCNRAAAQSKLGHYTDAIKDCEKAIAIDSKYSKAYGRMGLALTALNKFEEAVTSYQKALDLDPENDSYKSNLKIAEQKLREVSSPTGTGLSFDMASLINNPAFISMAASLMQNPQVQQLMSGMMTNAIGGPAAGVGGLTDLSSLIQAGQQFAQQIQQQNPELIEQLRNHIRSRSFSSSAEEHS [SGTB] | 0.092 | 0.321
MSSRLGAVPATSGPTTFKQQRSTRIVGAKNSRTQCSIKDNSFQYTIPHDDSLSGSSSASSCEPVSDFPASFRKSTYWMKMRRIKPAATSHVEGSGGVSAKGKRKPRQEEDEDYREFPQKKHKLYGRKQRPKTQPNPKSQARRIRKEPPVYAAGSLEEQWYLEIVDKGSVSCPTCQAVGRKTIEGLKKHMENCKQEMFTCHHCGKQLRSLAGMKYHVMANHNSLPILKAGDEIDEPSERERLRTVLKRLGKLRCMRESCSSSFTSIMGYLYHVRKCGKGAAELEKMTLKCHHCGKPYRSKAGLAYHLRSEHGPISFFPESGQPECLKEMNLESKSGGRVQRRSAKIAVYHLQELASAELAKEWPKRKVLQDLVPDDRKLKYTRPGLPTFSQEVLHKWKTDIKKYHRIQCPNQGCEAVYSSVSGLKAHLGSCTLGNFVAGKYKCLLCQKEFVSESGVKYHINSVHAEDWFVVNPTTTKSFEKLMKIKQRQQEEEKRRQQHRSRRSLRRRQQPGIELPETELSLRVGKDQRRNNEELVVSASCKEPEQEPVPAQFQKVKPPKTNHKRGRK [ZNF512] | -2.03 | 1.4
MSTFRQEDVEDHYEMGEELGSGQFAIVRKCRQKGTGKEYAAKFIKKRRLSSSRRGVSREEIEREVNILREIRHPNIITLHDIFENKTDVVLILELVSGGELFDFLAEKESLTEDEATQFLKQILDGVHYLHSKRIAHFDLKPENIMLLDKNVPNPRIKLIDFGIAHKIEAGNEFKNIFGTPEFVAPEIVNYEPLGLEADMWSIGVITYILLSGASPFLGETKQETLTNISAVNYDFDEEYFSNTSELAKDFIRRLLVKDPKRRMTIAQSLEHSWIKAIRRRNVRGEDSGRKPERRRLKTTRLKEYTIKSHSSLPPNNSYADFERFSKVLEEAAAAEEGLRELQRSRRLCHEDVEALAAIYEEKEAWYREESDSLGQDLRRLRQELLKTEALKRQAQEEAKGALLGTSGLKRRFSRLENRYEALAKQVASEMRFVQDLVRALEQEKLQGVECGLR [DAPK3] | -0.721 | -0.0326
MSTSSLRRQMKNIVHNYSEAEIKVREATSNDPWGPSSSLMSEIADLTYNVVAFSEIMSMIWKRLNDHGKNWRHVYKAMTLMEYLIKTGSERVSQQCKENMYAVQTLKDFQYVDRDGKDQGVNVREKAKQLVALLRDEDRLREERAHALKTKEKLAQTATASSAAVGSGPPPEAEQAWPQSSGEEELQLQLALAMSKEEADQPPSCGPEDDAQLQLALSLSREEHDKEERIRRGDDLRLQMAIEESKRETGGKEESSLMDLADVFTAPAPAPTTDPWGGPAPMAAAVPTAAPTSDPWGGPPVPPAADPWGGPAPTPASGDPWRPAAPAGPSVDPWGGTPAPAAGEGPTPDPWGSSDGGVPVSGPSASDPWTPAPAFSDPWGGSPAKPSTNGTTAAGGFDTEPDEFSDFDRLRTALPTSGSSAGELELLAGEVPARSPGAFDMSGVRGSLAEAVGSPPPAATPTPTPPTRKTPESFLGPNAALVDLDSLVSRPGPTPPGAKASNPFLPGGGPATGPSVTNPFQPAPPATLTLNQLRLSPVPPVPGAPPTYISPLGGGPGLPPMMPPGPPAPNTNPFLL [EPN1] | 0.197 | 0.235
MSVDPMTYEAQFFGFTPQTCMLRIYIAFQDYLFEVMQAVEQVILKKLDGIPDCDISPVQIRKCTEKFLCFMKGHFDNLFSKMEQLFLQLILRIPSNILLPEDKCKETPYSEEDFQHLQKEIEQLQEKYKTELCTKQALLAELEEQKIVQAKLKQTLTFFDELHNVGRDHGTSDFRESLVSLVQNSRKLQNIRDNVEKESKRLKIS [MIS12] | -0.177 | 0.259
MSVTEEDLCHHMKVVVRVRPENTKEKAAGFHKVVHVVDKHILVFDPKQEEVSFFHGKKTTNQNVIKKQNKDLKFVFDAVFDETSTQSEVFEHTTKPILRSFLNGYNCTVLAYGATGAGKTHTMLGSADEPGVMYLTMLHLYKCMDEIKEEKICSTAVSYLEVYNEQIRDLLVNSGPLAVREDTQKGVVVHGLTLHQPKSSEEILHLLDNGNKNRTQHPTDMNATSSRSHAVFQIYLRQQDKTASINQNVRIAKMSLIDLAGSERASTSGAKGTRFVEGTNINRSLLALGNVINALADSKRKNQHIPYRNSKLTRLLKDSLGGNCQTIMIAAVSPSSVFYDDTYNTLKYANRAKDIKSSLKSNVLNVNNHITQYVKICNEQKAEILLLKEKLKAYEEQKAFTNENDQAKLMISNPQEKEIERFQEILNCLFQNREEIRQEYLKLEMLLKENELKSFYQQQCHKQIEMMCSEDKVEKATGKRDHRLAMLKTRRSYLEKRREEELKQFDENTNWLHRVEKEMGLLSQNGHIPKELKKDLHCHHLHLQNKDLKAQIRHMMDLACLQEQQHRQTEAVLNALLPTLRKQYCTLKEAGLSNAAFESDFKEIEHLVERKKVVVWADQTAEQPKQNDLPGISVLMTFPQLGPVQPIPCCSSSGGTNLVKIPTEKRTRRKLMPSPLKGQHTLKSPPSQSVQLNDSLSKELQPIVYTPEDCRKAFQNPSTVTLMKPSSFTTSFQAISSNINSDNCLKMLCEVAIPHNRRKECGQEDLDSTFTICEDIKSSKCKLPEQESLPNDNKDILQRLDPSSFSTKHSMPVPSMVPSYMAMTTAAKRKRKLTSSTSNSSLTADVNSGFAKRVRQDNSSEKHLQENKPTMEHKRNICKINPSMVRKFGRNISKGNLR [KIF18A] | -0.624 | -0.237
MSYCRQEGKDRIIFVTKEDHETPSSAELVADDPNDPYEEHGLILPNGNINWNCPCLGGMASGPCGEQFKSAFSCFHYSTEEIKGSDCVDQFRAMQECMQKYPDLYPQEDEDEEEEREKKPAEQAEETAPIEATATKEEEGSS [CHCHD4] | -0.518 | -0.667
MSYMLPHLHNGWQVDQAILSEEDRVVVIRFGHDWDPTCMKMDEVLYSIAEKVKNFAVIYLVDITEVPDFNKMYELYDPCTVMFFFRNKHIMIDLGTGNNNKINWAMEDKQEMVDIIETVYRGARKGRGLVVSPKDYSTKYRY [TXNL4A] | -0.625 | 0.224
MTFQFNFTIEDHLENELTPIRDGALTLDSSKELSVSESQKGEERDRKCSAEQFDLPQDHLWEHKSMENAAPSQDTDSPLSAASSSRNLEPHGKQPSLRAAKEHAMPKDLKKMLENKVIETLPGFQHVKLSVVKTILLKENFPGENIVSKSFSSHSDLITGVYEGGLKIWECTFDLLAYFTKAKVKFAGKKVLDLGCGSGLLGITAFKGGSKEIHFQDYNSMVIDEVTLPNVVANSTLEDEENDVNEPDVKRCRKPKVTQLYKCRFFSGEWSEFCKLVLSSEKLFVKYDLILTSETIYNPDYYSNLHQTFLRLLSKNGRVLLASKAHYFGVGGGVHLFQKFVEERDVFKTRILKIIDEGLKRFIIEITFKFPG [METTL18] | -0.31 | 0.0132
MTQQPQDDFDRSVEDAQAWMKAVQDQLQVNDNTQGPRAALEARLWETEKICQLEPEGRVRVDLVLRMAEALLACCPGDQKPGILARLKDIKAQWEETVTYMTHCHSRIEWVWLHWSEYLLARDEFYRWFQKMMVTLEPHIELQLGLKEKQWQLSHAQVLLHNVDNQAVLLDRLLEEAASLFNRIGDPSVDEDAQKRMKAEYDAVKAKAQKRVDLLEQVAREHEEYQAGVDEFQLWLKAVVEKVNGCLGRNCKLPITQRLSTLQDIAKDFPRGEESLETLEEQSAGVIRNTSPLGAEKITGELEEMRKVLEKLRALWEEEEERLRGLLRSRGAWEQQIKQLEAELSEFRMVLQRLAQEGLQPAAKAGTEDELVAHWRRYSATRAALASEEPRVDRLQAQLKELIVFPHNLKPLSDSVIATIQEYQSLKVKSARLRNAAAVELWQHFQRPLQDLQLWKALAQRLLEVTASLPDLPSLHTFLPQIEAALMESSRLKELLTMLQLKKDLLIGIFGQERATALLEQVAGSMRDRDLLHNSLLQRKSKLQSLLAQHKDFGAAFEPLQRKLLDLQVRVQAEKGLQRDLPGKQAQLSRLQGLQEEGLDLGAQMEAARPLVQENPNHQHKMDQLSSDFQALQRSLEDLVDRCRQSVQEHCTFSHQLLELRQWIVVTTQKLEAHRGEAGPGDAESQEAEFERLVAEFPEKEAQLSLVEAQGWLVMEKSSPEGAAVVQEELRELAESWRALRLLEESLLSLIRNWHLQRMEVDSGKKMVFTNNIPKSGFLINPMDPIPRHRRRANLLQEEEGSHEDFSQLLRNFGQWLQVENSKLVRIIAMRTSTAEDLRTRKSKLQELEARVPEGQHLFENLLRLGPARGTSDELEDLRYQWMLYKSKLKDSGHLLTQSSPGEPTGFQKTRRWRGLGSLFRRACCVALPLQLLLLLFLLLLFLLPIREEDRSCTLANNFARSFTLMLRYNGPPPT [SYNE3] | -0.89 | 0.336
MTYAYLFKYIIIGDTGVGKSCLLLQFTDKRFQPVHDLTIGVEFGARMVNIDGKQIKLQIWDTAGQESFRSITRSYYRGAAGALLVYDITRRETFNHLTSWLEDARQHSSSNMVIMLIGNKSDLESRRDVKREEGEAFAREHGLIFMETSAKTACNVEEAFINTAKEIYRKIQQGLFDVHNEANGIKIGPQQSISTSVGPSASQRNSRDIGSNSGCC [RAB2B] | -0.221 | -0.115
